Data from patent US20120321699A1 (published 2012).

Biological target: HV00044 (6240 TZ5 140C) (HIV-1)
Experiment: SPR

B1: CH01 (antibody, V domains shown)
VH: EVQLVESGANVVRPGGSLRLSCKASGFIFENFGFSWVRQAPGKGLQWVAGLNWNGGDTRYADSVKGRFRMSRDNSRNFVYLDMDKVGVDDTAFYYCARGTDYTIDDAGIHYQGSGTFWYFDLWGRGTLVSVSS
VL: EIVLTQSPGTLSLSPGERATLSCRASHNVHPKYFAWYQQKPGQSPRLLIYGGSTRAAGIPGKFSGSGSGTDFTLTISRVDPEDFAVYYCQQYGGSPYTFGQGTKVEI
Kd: 300 nM
